Biological target: T1, recombinant mouse E-selectin-human Fc chimera (mouse, UniProt Q00690 22-557)
T1 construct: Bought reagent (R&D Systems); Used as the probe in western blots and detected with HRP goat anti-human Ig; also called E-selectin-Ig chimera; E-Ig; not shown: human Fc
T1 sequence (looked up): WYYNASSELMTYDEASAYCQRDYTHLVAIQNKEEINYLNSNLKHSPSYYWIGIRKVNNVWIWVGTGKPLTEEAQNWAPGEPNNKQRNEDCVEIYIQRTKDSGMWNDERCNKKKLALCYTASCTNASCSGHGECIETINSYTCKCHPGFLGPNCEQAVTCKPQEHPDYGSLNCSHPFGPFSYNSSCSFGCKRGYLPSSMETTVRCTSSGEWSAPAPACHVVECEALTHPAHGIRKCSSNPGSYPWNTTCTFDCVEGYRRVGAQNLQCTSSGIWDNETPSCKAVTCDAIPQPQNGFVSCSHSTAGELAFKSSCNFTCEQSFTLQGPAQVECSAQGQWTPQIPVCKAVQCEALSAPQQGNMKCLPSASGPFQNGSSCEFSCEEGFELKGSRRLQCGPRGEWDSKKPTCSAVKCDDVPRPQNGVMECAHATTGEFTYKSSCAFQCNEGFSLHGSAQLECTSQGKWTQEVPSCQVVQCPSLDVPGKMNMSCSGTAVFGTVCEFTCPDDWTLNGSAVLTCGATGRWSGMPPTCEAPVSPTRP
Assay: western blot of ML lysates and WGA-purified glycoproteins, reducing SDS-PAGE

binding result: binds
B1: P-selectin glycoprotein ligand-1 (PSGL-1), Cutaneous Lymphocyte Antigen glycoform, from ML lysates (ligand, human, UniProt Q14242 42-412, looked up)
chain: QATEYEYLDYDFLPETEPPEMLRNSTDTTPLTGPGTPESTTVEPAARRSTGLDAGGAVTELTTELANMGNLSTDSAAMEIQTTQPAATEAQTTQPVPTEAQTTPLAATEAQTTRLTATEAQTTPLAATEAQTTPPAATEAQTTQPTGLEAQTTAPAAMEAQTTAPAAMEAQTTPPAAMEAQTTQTTAMEAQTTAPEATEAQTTQPTATEAQTTPLAAMEALSTEPSATEALSMEPTTKRGLFIPFSVSSVTHKGIPMAASNLSVNYPVGAPDHISVKQCLLAILILALVATIFFVCTVVLAVRLSRKGHMYPVRNYSPTEMVCISSLLPDGGEGPSATANGGLSKAKSPGLTPEPREDREGDDLTLHSFLP
modifications: sialofucosylated glycans
notes: Named only by the position of its band in the blot; also called CLA; ~140 kDa E-selectin ligand
